Data published in patent publication US20170306031A1 (NGM BIOPHARMACEUTICALS, published 2017).
Where a chain is given by its changes, count along the chain named. Like-named read-outs stand apart in the source and are kept apart here. One block for each binder: values may come before it.

Experiments:
[1] = molecular target: T1, human GFRAL expressed on cells (human, UniProt Q6UXV0 20-394); test: cell-based or functional assay
T1 sequence: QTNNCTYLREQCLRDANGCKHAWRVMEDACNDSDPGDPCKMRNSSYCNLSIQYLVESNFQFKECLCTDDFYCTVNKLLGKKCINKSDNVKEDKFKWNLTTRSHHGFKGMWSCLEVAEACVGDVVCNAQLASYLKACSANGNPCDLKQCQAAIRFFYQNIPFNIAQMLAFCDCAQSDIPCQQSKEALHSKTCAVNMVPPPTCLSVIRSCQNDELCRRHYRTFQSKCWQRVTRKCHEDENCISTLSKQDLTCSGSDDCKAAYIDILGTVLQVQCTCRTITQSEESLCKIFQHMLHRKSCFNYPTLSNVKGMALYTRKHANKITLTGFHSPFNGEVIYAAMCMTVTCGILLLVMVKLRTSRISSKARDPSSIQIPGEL

[2] = molecular target: T1, human GFRAL expressed on cells; test: cell-based or functional assay; remark: listed apart in the source
GFRα1 = molecular target: T2, GFRα1 (UniProt P56159 25-429, limits assumed); test: SPR, GFRα1 on chip surface (FIGS. 13A and 13B)
T2 construct: also called GNFR alpha 1; receptor GFRα1
T2 sequence (looked up): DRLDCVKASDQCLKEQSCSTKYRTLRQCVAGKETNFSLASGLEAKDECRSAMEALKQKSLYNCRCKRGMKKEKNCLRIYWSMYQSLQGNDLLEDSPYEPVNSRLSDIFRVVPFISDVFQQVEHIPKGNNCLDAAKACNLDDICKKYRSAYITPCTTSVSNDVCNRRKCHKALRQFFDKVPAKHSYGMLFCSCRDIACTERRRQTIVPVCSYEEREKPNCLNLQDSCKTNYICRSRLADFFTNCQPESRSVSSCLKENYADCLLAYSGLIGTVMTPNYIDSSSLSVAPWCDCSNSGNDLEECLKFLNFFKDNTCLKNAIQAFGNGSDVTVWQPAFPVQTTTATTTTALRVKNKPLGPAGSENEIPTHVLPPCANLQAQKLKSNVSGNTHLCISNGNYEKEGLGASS

[3] = molecular target: T3, human GFRAL (analyte in Biacore assays) (human, UniProt Q6UXV0 19-351, limits assumed); test: Biacore SPR, antibody captured, human GFRAL injected
T3 construct: injected in solution over captured antibody; also called hGFRAL
T3 sequence: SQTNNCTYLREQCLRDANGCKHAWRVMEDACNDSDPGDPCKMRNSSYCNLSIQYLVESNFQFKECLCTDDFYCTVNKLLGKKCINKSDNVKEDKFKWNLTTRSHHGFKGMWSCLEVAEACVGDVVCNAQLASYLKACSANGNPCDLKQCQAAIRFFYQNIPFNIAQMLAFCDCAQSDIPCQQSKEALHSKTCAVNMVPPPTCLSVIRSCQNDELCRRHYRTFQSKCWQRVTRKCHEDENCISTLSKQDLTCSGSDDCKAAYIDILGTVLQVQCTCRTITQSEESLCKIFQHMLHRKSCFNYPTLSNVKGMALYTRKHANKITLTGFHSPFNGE
Procedure, shortened: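 Purified humanized antibodies captured (~100 RU) on anti-mouse Fc immobilized by amine coupling on a CM5 chip, with a reference flow cell.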

[4] = molecular target: T1, human GFRAL expressed on cells; test: cell-based or functional assay; remark: listed apart in the source
[5] = molecular target: T4, mouse GFRAL expressed on cells (mouse, UniProt Q6SJE0 20-393); test: cell-based or functional assay
T4 sequence: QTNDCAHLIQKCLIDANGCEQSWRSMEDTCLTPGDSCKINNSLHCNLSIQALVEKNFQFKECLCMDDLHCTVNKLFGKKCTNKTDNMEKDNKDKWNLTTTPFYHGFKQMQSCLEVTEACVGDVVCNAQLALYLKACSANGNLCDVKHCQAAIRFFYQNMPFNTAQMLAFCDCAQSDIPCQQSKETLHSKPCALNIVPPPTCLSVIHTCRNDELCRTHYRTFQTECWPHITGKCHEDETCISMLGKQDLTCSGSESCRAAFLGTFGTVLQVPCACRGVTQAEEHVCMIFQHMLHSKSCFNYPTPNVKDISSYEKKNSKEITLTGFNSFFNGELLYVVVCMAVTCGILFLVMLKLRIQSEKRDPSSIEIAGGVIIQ

[6] = molecular target: T1, human GFRAL expressed on cells; test: cell-based or functional assay; remark: listed apart in the source
[7] = molecular target: T1, human GFRAL expressed on cells; test: cell-based or functional assay; remark: listed apart in the source
[8] = molecular target: T3, human GFRAL (analyte in Biacore assays); test: Biacore SPR, antibody captured, GFRAL injected
[9] = molecular target: T5, mouse GFRAL (analyte in Biacore assays) (mouse, UniProt Q6SJE0 20-349, limits assumed); test: Biacore SPR, antibody captured, GFRAL injected
T5 construct: injected in solution over captured antibody
T5 sequence: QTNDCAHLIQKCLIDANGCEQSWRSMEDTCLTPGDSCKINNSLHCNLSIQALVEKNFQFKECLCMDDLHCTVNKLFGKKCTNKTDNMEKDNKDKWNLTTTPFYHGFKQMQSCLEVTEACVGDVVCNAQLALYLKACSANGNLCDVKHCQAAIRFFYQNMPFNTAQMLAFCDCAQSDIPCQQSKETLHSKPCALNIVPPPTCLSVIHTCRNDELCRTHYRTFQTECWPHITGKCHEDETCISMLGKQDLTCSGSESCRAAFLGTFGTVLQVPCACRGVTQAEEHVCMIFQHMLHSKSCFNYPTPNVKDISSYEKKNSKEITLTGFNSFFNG

IC50, ELK1-luciferase reporter (hGFRAL/hRET) [1]: 6.95 nM
IC50, ERK phosphorylation in U2OS hGFRAL/hRET cells [2]: 3.3 nM
binding result (GFRα1): no binding
Kd [3]: < 0.01 nM
B1: humanized anti-GFRAL antibody HC-344e/LC-344h (antibody, IgG1, V domains shown)
VH: QVQLVQSGAEVKKPGSSVKVSCKASGYTFTDYGVIWVRQAPGQGLEWMGWINTYTGEPTYADDLKGRVTFTADESTSTAYMELSSLRSEDTAVYYCARRYGPEDIDYWGQGTTVTVSS
VL: DVVLTQSPLSLPVTLGQPASISCRASESVDNYGISFMSWFQQRPGQSPRLLIYAASHQGSGVPDRFSGSGSGTDFTLKISRVEAEDVGVYFCLQSKEVPWTFGGGTKVEIK
notes: humanized 3P10; also called h3P10

IC50, ELK1-luciferase reporter (hGFRAL/hRET) [1]: 7.26 nM
IC50, ERK phosphorylation in U2OS hGFRAL/hRET cells [2]: 5.13 nM
Kd [3]: 0.012 nM
B2: humanized anti-GFRAL antibody HC-344a/LC-344c (antibody, IgG1, V domains shown)
VH: B1 VH with F70I
VL: B1 VL with V2I
notes: humanized 3P10

IC50, ELK1-luciferase reporter (hGFRAL/hRET) [1]: 29.4 nM
IC50, ERK phosphorylation in U2OS hGFRAL/hRET cells [2]: 15.1 nM
Kd [3]: < 0.01 nM
B3: humanized anti-GFRAL antibody HC-344h/LC-344c (antibody, V domains shown)
VH: B1 VH with V2I, E46K
VL: B1 VL with V2I
notes: humanized 3P10

IC50, ELK1-luciferase reporter (hGFRAL/hRET) [1]: 5.7 nM
IC50, ERK phosphorylation in U2OS hGFRAL/hRET cells [2]: 2.18 nM
Kd [3]: < 0.01 nM
B4: humanized anti-GFRAL antibody HC-344h/LC-344h (antibody, IgG1, V domains shown)
VH: B1 VH with V2I, E46K
VL: B1 VL
notes: humanized 3P10

IC50, ELK1-luciferase reporter (hGFRAL/hRET) [1]: 4.63 nM
IC50, ERK phosphorylation in U2OS hGFRAL/hRET cells [2]: 5.02 nM
Kd [3]: < 0.01 nM
B5: humanized anti-GFRAL antibody HC-344a/LC-344h (antibody, IgG1, V domains shown)
VH: B1 VH with F70I
VL: B1 VL
notes: humanized 3P10

IC50, ELK1-luciferase reporter (hGFRAL/hRET) [4]: 0.834 nM
IC50, ELK1-luciferase reporter (mGFRAL/mRET) [5]: 6.28 nM
IC50, ERK phosphorylation in U2OS hGFRAL/hRET cells [6]: 0.06 nM
IC50, ELK1-luciferase reporter (hGFRAL/hRET) [7]: 5.4 nM
Kd [8]: < 0.1 nM
koff [8]: ~1e-05 s⁻¹
Kd [9]: 2.2 nM
koff [9]: 0.0009 s⁻¹
Kd [3]: 0.038 nM
B6: antibody designated 5F12 (antibody, V domains shown)
VH: QVQLKQSGTELVRPGASVKLSCKASGYTFTDYYINWVKQRPGQGLEWIARIYPGNGNTYHNEKFKGKATLTAEKSSSTAYMQLSSLTSEDSAVYFCAREGLYYDYDRYFDYWGQGTALTVSS
VL: NIVLTQSPASLAVSLGQRATISCRASESVDTYGNSFMHWYQQKPGQPPKLLIYLASNLESGVPARFSGSGSRTDFTLTIDPVEADDAATYYCHQNNEDPPAFGGGTKLEIK
notes: mouse hybridoma monoclonal; also called 5F12 Hybridoma

IC50, ELK1-luciferase reporter (hGFRAL/hRET) [4]: 4.09 nM
IC50, ELK1-luciferase reporter (mGFRAL/mRET) [5]: 1.03 nM
IC50, ERK phosphorylation in U2OS hGFRAL/hRET cells [6]: 0.08 nM
IC50, ELK1-luciferase reporter (hGFRAL/hRET) [1]: 4.02 nM
IC50, ERK phosphorylation in U2OS hGFRAL/hRET cells [2]: 5.46 nM
Kd [8]: < 0.1 nM
koff [8]: ~1e-05 s⁻¹
Kd [9]: < 0.1 nM
koff [9]: ~1e-05 s⁻¹
Kd [3]: < 0.01 nM
B7: antibody designated 3P10 (antibody, V domains shown)
VH: QIQLVQSGPELKKPGETVKISCKASGYTFTDYGVIWVKQAPGKALKWMGWINTYTGEPTYADDLKGRFAFSLETSASSASLQINNLKNEDTATYFCARRYGPEDIDYWGQGTTLTVSS
VL: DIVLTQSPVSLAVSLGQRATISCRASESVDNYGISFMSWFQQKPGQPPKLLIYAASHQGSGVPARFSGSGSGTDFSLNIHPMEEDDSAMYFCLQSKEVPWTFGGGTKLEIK
notes: mouse hybridoma monoclonal; also called 3P10 Hybridoma; m3P10
